The values that follow are results of earlier work, collected in article PMC10256198 (European Heart Journal, 2023).

The conditions of this data set: stated in the introduction, no reference given.

As for “Ghrelin: endogenous 28 amino acid anabolic peptide hormone, activated by acylation of amino-acid 3 (GSSFLSPEHQRVQQRKESKKPPAKLQPR; Ghrelin-28; UniProt Q9UBU3 24-51, looked up)”, the plasma half time is 24 to 30 min.
